Experiments:
[1] = target: FcγRI and FcγRII on THP-1 cells; test: flow cytometry, antibody on THP-1 cells, FITC anti-human IgG Fab
[2] = target: human C1q (Quidel) (human) (UniProt P02745); test: ELISA: antibody captured on protein A/G, human C1q 2 ug/ml, anti-C1q detection
[3] = target: FcγRIIIA-streptavidin fusion protein (human; Streptomyces avidinii) (UniProt P08637); test: ELISA: antibody captured on protein A/G, FcγRIIIA-streptavidin (1:1000), biotin-HRP; the text speaks of IC50 values
Chain of FcγRIIIA-streptavidin fusion protein (human; Streptomyces avidinii) (P08637 17-208 limits assumed): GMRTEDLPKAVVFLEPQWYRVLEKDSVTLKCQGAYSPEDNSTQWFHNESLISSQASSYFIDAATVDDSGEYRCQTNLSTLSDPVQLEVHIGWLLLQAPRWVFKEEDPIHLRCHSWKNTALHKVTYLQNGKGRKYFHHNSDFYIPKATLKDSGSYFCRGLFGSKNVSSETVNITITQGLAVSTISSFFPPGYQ

Chain of human C1q (Quidel) (human) (P02745 23-245, chain 1 of 3): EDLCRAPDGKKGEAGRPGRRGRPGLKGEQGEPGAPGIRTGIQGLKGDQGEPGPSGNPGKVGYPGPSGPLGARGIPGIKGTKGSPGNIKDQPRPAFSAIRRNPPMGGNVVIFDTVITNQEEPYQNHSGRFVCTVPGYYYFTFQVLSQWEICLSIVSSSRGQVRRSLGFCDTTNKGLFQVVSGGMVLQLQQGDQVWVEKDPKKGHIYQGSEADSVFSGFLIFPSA
Chain of human C1q (Quidel) (human) (P02746 28-253, chain 2 of 3, further chain): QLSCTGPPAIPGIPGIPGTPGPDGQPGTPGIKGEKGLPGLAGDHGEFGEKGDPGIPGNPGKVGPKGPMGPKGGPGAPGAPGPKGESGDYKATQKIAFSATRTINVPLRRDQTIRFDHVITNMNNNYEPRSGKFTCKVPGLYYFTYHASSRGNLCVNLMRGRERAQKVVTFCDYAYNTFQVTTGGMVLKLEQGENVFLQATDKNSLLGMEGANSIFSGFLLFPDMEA
Chain of human C1q (Quidel) (human) (P02747 29-245, chain 3 of 3, further chain): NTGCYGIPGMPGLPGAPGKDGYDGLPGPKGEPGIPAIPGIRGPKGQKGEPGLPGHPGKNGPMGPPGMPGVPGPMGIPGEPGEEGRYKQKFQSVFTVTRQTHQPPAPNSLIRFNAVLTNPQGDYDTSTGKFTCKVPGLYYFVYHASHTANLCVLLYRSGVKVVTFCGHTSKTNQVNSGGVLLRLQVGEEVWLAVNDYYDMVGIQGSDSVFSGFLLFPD

| Substance | FcγRI&II Binding (fold less, against wild type) [1] [fold] | C1q binding (fold less, against wild type) [2] [fold] | FcγRIIIA Binding [3] [µg/mL] |
| --- | --- | --- | --- |
| 12G3H11 anti-EphA2 antibody Fc variant K246R/L251E/T260R (soluble) | 9 | 2 |  |
| 12G3H11 anti-EphA2 antibody Fc variant W277T (soluble) |  |  | 0.5 |
| 12G3H11 anti-EphA2 antibody Fc variant InE240/241 (soluble) (from UniProt P01857 1-330) |  |  | 4.93 |
